The assay concerns the target FLAG-tagged R2FasL (pFLAG-FlkFasL; FlkFasL with an N-terminal FLAG epitope tag) (mouse; human) (UniProt P35918). Kind of assay: cell-based or functional assay.

Chain of FLAG-tagged R2FasL (pFLAG-FlkFasL; FlkFasL with an N-terminal FLAG epitope tag) (mouse; human) (P35918 other isoform, or with tags, fused parts or gaps): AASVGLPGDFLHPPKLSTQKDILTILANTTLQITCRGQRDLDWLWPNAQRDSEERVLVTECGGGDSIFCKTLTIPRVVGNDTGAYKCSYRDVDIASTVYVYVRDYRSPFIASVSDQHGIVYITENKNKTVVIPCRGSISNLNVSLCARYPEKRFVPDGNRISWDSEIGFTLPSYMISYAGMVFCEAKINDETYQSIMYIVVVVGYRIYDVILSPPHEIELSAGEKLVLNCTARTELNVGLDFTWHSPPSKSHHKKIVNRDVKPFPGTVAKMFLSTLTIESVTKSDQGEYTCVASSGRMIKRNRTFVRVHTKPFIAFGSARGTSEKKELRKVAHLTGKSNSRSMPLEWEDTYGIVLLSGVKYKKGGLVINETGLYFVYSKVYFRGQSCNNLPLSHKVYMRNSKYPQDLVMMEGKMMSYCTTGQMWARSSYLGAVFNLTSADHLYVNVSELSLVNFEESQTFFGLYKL

With “recombinant human VEGF-165 (from UniProt P15692 27-191) (ligand)”, the ED50 (viability of Jurkat E6.1 cells, resazurin assay) was 0.02 to 0.2 nM.
